In paper PMC12297659, “In situ structure of the mouse sperm central apparatus reveals mechanistic insights into asthenozoospermia” (Cell Research, 2025):

B1: SPAG16 (natural protein, mouse (endogenous in sperm), UniProt Q8K450 1-639, looked up)
chain: MAAPSGVPPLRVLEELGIGLSPTGEVTEAVTSEGAYYLEQVTITETSEDECEYEEIPDDNFSIPEGEEDLEKAIHIIGEQARDIHILEQQTILPARNVMQEAIEDFLCNFLIKMGMTRTLDCFQAEWYELIQKKGSDFKGLGNVPDVYSQVMLLETENKNLKKELKHFKQAAEKAKEDLLRTQKERDFHRMHHKRIVQEKNKLIADLKGLKLHYASYEPTIRVLHEKHHALLKEKMLTSLERDRAVGKISGLQATLKNIDMGHIQVPVIKGSYESASITRESGDRAGHSCEKENSSEGPTQKSLREAREEVGYKSKLKNEKKDSEFPVDMQPDPNVTSCTENVSAAKFDYKLNNIFRLHELPVSCIVMHPCRDYLISCSEDRLWKMVGLPQGNVLLTGSGHTDWLSGCCFHPSGSKLATSSGDSTIKLWDLNKGECTLTLEGHNHAVWSCTWHSCGDFVASASLDMTSKIWDVNSERCRYTLYGHTDSVNSIEFFPFSNILLTASADKTLSVWDARTGKCEQSLYGHMHSVNDATFTPRGHIIASCDARGVTKLWDFRKLIPIVSIDVGPSSGNEVNFDQSGRVLAQASANGIIHLLDLKSGQIHKLVGHESEVHSVVFSHLGENLYSGGSDGTIRLWI
notes: SPAG16, mouse, with a coiled-coil domain and a C-terminal β-propeller domain; Adjacent copies dimerise through the coiled-coil domain; also called PF20 homolog; source: endogenous, in intact mouse sperm (cryo-FIB lamellae)
B2: CFAP70 (natural protein, mouse (endogenous in sperm), UniProt D3YVL2 1-1141, looked up)
chain: MDQTSSTTKIVHITVTNGYDLKGFKGDTPVTFVRAEFNQTVLGDSSKVTVSPEGTAKYNFTSNIDLSPDGGGALDDLAHKPLFLTVTEVLPKEKKQKDEKTLILGQAVVDLLPLLEGEESFETTVPLHPVPGSPLETPLPGSKQCSLDVKVFVAEPLLTPAQVSASNLLKVTLEAAYSVPESFIPVGPQQNYMVGLQVPSVGEKDYTMIFKNGNLKLGGEKEPVPRPKKWPIANILAPGASNIPDEFIVGGPYEEEEGELNHPEDREFRNQAECTKKRIVWDLESRCFLHPFAVASFQKRIADCRLWPVEITRVPLVVMPKAKPGKLEKIDDENQLSFHGVAYINMVPLLYPGVKKIRGAFHVYPYLDGTVFEKTKCLFSLFRDTGHHLVQNNKAGGLNSPLSKPLSKNLKEEKPGKDKDTEGRPRLGELQAPSIKSQSSDTPLESEAPLSHNLEGQQYIEAGTYIVLEIQLEKALVPKRMPEELARRVKEMIPPRPPLTRRTGGAQKAVSDYHTQIKSISRAILNEYYRMFGKQGPKLESDIDNETMEERKCQLNYELNCSGKYFAFKEQLKHAVVKIVREKYLKTTAFESQEELQTFISELYVFLVDQMHVALNQAVPDDVPSSTSTIQTSSEQLRLFAFEAEVNEKFEIAAMYYEERLVREPQNLENWLDYGAFCLLTEDNIKAQECFRKALSLNESHVDSLLLCGVLAILLENYEQAEIFFEDATCLEPTNVIAWTLLGLFYEIQNNDIRMEMAFHEAFKQLQARTLQTKLKSTVTIENMEEGVKVEPSFGPWGVVQESTTAIKTEGLSGMRPQSSHQLSPHTNMELHPQPQGPNTALSSLDEFLEESPKAQSESQEPMATGQPLEPSLVQRSSNALLKELTSKKDISKCQDSSAFSPPTQHVIAQPPVTIFMETIRFLMKVNAVQFVHRVLAHELLCPQGGPSCEYYLVLAQTHLLKKDFAKTEEYLQQAAQMDYLNPNVWGVKGHLYFLSGNHAEAKECYERTISFVVDASEMHFIFLRLGHIYLEEKEYENAKRTYMHACKRSPSCLTWLGLGIACYRLEELTEAEDALSEANALNNCNAEVWAYLALVCLKVGRQLEAEQAYKYTIKLKLKDQALLEEIHTVQEMVGFGNPSF
notes: CFAP70, mouse; The CFAP70 dimer was predicted with AlphaFold2 Multimer before fitting; source: endogenous, in intact mouse sperm (cryo-FIB lamellae)

Assays:
Test in all cases: cryo-EM structure; in situ cryo-electron tomography with subtomogram averaging of about 200 nm cryo-FIB lamellae of wild-type mouse sperm; local maps of 5.5 Å to 18 Å; AlphaFold2 models fitted into the density
[1] = target: GMCL1 (BTBD16) (mouse (endogenous in sperm)) (UniProt Q920G9)
[2] = target: SPATA17 (mouse (endogenous in sperm)) (UniProt Q9D552)
Chain of SPATA17 (mouse (endogenous in sperm)) (Q9D552 whole entry): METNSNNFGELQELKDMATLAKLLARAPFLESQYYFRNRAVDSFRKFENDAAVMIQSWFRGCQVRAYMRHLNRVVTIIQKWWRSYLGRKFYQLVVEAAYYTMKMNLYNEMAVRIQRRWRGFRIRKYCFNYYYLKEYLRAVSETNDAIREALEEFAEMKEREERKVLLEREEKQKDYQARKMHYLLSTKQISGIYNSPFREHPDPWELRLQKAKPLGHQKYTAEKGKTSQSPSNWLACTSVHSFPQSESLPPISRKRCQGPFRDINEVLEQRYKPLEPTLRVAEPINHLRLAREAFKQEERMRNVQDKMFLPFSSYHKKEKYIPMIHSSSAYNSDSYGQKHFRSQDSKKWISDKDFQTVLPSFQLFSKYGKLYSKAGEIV

[3] = target: the molecule itself

| Molecule | stoichiometry N [3] | other results |
| --- | --- | --- |
| GMCL1 (BTBD16) (from UniProt Q920G9 1-524) (natural protein) |  | stoichiometry N [1]: 2 |
| calmodulin (CaM) (from UniProt P0DP26 1-149) (natural protein) |  | stoichiometry N [2]: 3 |
| B1 | 2 |  |
| B2 | 2 |  |
